“And” between values parts separate entries of the source, which are not always exact repeats. Equal entries are not always repeated.

The results in this text go back to patent US11191823 (CHILDREN S MEDICAL CENTER, dated 2021).

In assay [1] the target is T1, JUNV GP1 (residues 87-235), biotinylated (Junin virus (JUNV), UniProt P26313 87-235). The assay is described as follows: ELISA, plates coated with biotinylated antigen, IgG titrated.
For assay [2], the target named is T1, JUNV GP1 (residues 87-235), biotinylated. The assay is described as follows: SPR, Fab over immobilized JUNV GP1. Background: Surface plasmon resonance follows binding to a sensor surface in real time, without labels.
Assay [3] shares this target.
Assay [4] has the same target. The assay is described as follows: ELISA, plates coated with antigen, IgG titrated.

B1: CR1-07 IgG (antibody, V domains shown)
VH: QVQLVESGGGVVHPGRSLRLSCAASGFTFGTSIMHWVRQAPGKGMQWVAQISHDESRKFYSDSVKGRFTVSRDNSKNTLFLEMSSLRIEDTAVYYCAKDLSPPYSYAWDIFQYWGQGSLVTVS
VL: DIVMTQSPESLAVSLGERATINCKSSQSVLYSSRSDNKDYLAWYQQKPGQSPKLLIYWASTRESGVPERFTGSGSGTDFTLSISSLQAEDVAVYYCQQYYSSPPTFGGGTKVELK
In the case of B1, the EC50 (read off the curve) (in general, the concentration that produces a half-maximal response) in assay [1] was around 0.2 µg/mL.

B2: CR1-07 Fab (Fab, V domains shown)
VH: QVQLVESGGGVVHPGRSLRLSCAASGFTFGTSIMHWVRQAPGKGMQWVAQISHDESRKFYSDSVKGRFTVSRDNSKNTLFLEMSSLRIEDTAVYYCAKDLSPPYSYAWDIFQYWGQGSLVTVS
VL: DIVMTQSPESLAVSLGERATINCKSSQSVLYSSRSDNKDYLAWYQQKPGQSPKLLIYWASTRESGVPERFTGSGSGTDFTLSISSLQAEDVAVYYCQQYYSSPPTFGGGTKVELK
Turning to B2, the affinity in assay [2], expressed as Kd, was 86.2 nM.

B3: GD01 IgG (antibody, V domains shown)
VH: EVKLQQSGAELARPGTSVKLSCKASGYTFTNYWMQWIKQRPGQGLEWIGAVYPGDGDTRFSQKFKGKATLTADKSSSTAYMQLSSLSSEDSAVYFCARRRVYYGSNYIYALDYWGQGTSVTVSA
VL: DIVMTQSQKFMSTSIGDRVSITCKASQNVGSAVAWYQQKPGQSPKLLIYSASNRYTGVPDRFIGSESGTDFTLTISNMQSEDLADYFCQQYSSYPLAFGAGTKLELK
For B3, the “IC50 (read off the curve)” value in assay [3] is ~8 µg/mL and ~7 µg/mL and ~10 µg/mL. In addition, the “EC50 (read off the curve)” value in assay [4] is around 0.1 µg/mL.

B4: CR1-28 IgG (antibody, V domains shown)
VH: QVQLVESGGGVVQPGRSLRLSCAASGFTFSSSAMHWVRQAPGKGLEWVAVIWSDGSNENYADSVKGRFTISRDNSKNTLYLQMSSLRAEDTAVYYCATDKTYVSGYTSTWYYFNYWGQGTLVTVS
VL: DIQMTQSPSTLSASVGDRVTITCRASQSIDNWLAWYQQKPGKAPKLLIYTASRLESGVPSRFSGSGSGTEFTLTISSLQPDDFATYYCQHRTFGQGTKVEIK
Take B4: the “EC50 (read off the curve)” value in assay [1] was around 0.1 µg/mL.

B5: CR1-28 Fab (Fab, V domains shown)
VH: QVQLVESGGGVVQPGRSLRLSCAASGFTFSSSAMHWVRQAPGKGLEWVAVIWSDGSNENYADSVKGRFTISRDNSKNTLYLQMSSLRAEDTAVYYCATDKTYVSGYTSTWYYFNYWGQGTLVTVS
VL: DIQMTQSPSTLSASVGDRVTITCRASQSIDNWLAWYQQKPGKAPKLLIYTASRLESGVPSRFSGSGSGTEFTLTISSLQPDDFATYYCQHRTFGQGTKVEIK
With B5, in assay [2], the affinity, expressed as Kd, was 5.3 nM.
